The source of these data is the nanobody polyreactivity screen of Harvey et al. (2022).

A short description of the data set: yeast display, Sf9 membrane polyspecificity reagent, FACS + sequencing; frameworks hold sequencing errors. Put shortly:
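A nanobody's polyreactivity label depends on the gate it was sorted from. Yeast display cells were stained with 10% biotinylated, detergent-solubilized Sf9 membrane reagent for 1 hour at 4 °C, enriched on streptavidin microbeads and sorted by FACS. The low and high (top ~1%) gates were set on anti-HA fluorescence for expression and streptavidin fluorescence for reagent binding.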
As to “QVQLVESGGGLVQAGGSLRLSCAASGRIFNLYAMGWYRQAPGKERELVAAINWSGDRTYYADSVKGRFTISRDNAKNTVYLQMYSLKPEDTAVYYCNADGLEIERYAYWYVFLGYDYWGQGTQVTVSS”, the “polyreactivity (PSR sort gate)” value is on record as “low polyreactivity”. Then “QVQLVESGGGLVQAGGSLRLSCAASGRIFNLYAMGWYRQAPGKERELVAGISWSGGDTTYADSVKGRFTISRDNAKNTVYLQMNSLKPEDTAVYYCNKRAYLDYGGRGYNYWGQGTRVTVSS”, with “low polyreactivity”; and “QVQLVESGGGLVQAGGSLRLSCAASGRIFNNNAMGWYRPAPGKERELVASITRRGGRTYYADSVKGRFTISRDNAKNTVYLQMNSLKPEDTAVYYCNALAGPPEFVRNYYWGQGTQVTVSS”, with “high polyreactivity”; and “QVQLVESGGGLVQAGGSLRLSCAASGRIFNRYAMGWSRQAPGKERELVAAITTSADSTYADSVKGRFTISRDNAKNTVYLQRNSLKPEDTAVYYCNVASRQGSTYDYWGQGTQVTVSS”, with “high polyreactivity”. Then “QVQLVESGGGLVQAGGSLRLSCAASGRIFNRYARGWYRQAPGKERELVAAITYNGGSTYYADSVKGRFTISRDNAKNTVYLQMNSLKPEDTAVYYCNAVEVLDEGCGFWYYYWGQGTQVTVSS”, with “high polyreactivity”. For the sequence “QVQLVESGGGLVQAGGSLRLSCAASGRIFNSNTMGWYRQAPGKERELVAAITYSGGSTYYADSVKGRFTISRDNAKNTVYLQMNSLNPEDTAVYYCAADFWEYDGPWYANDYDSWGQGTQVTVSS”, the “polyreactivity (PSR sort gate)” value is “low polyreactivity”. With “QVQLVESGGGLVQAGGSLRLSCAASGRIFNVNAMGWYRQAPGKERDLVARIDTGVGTKYADSVKGRFTISRDNAKNTVYLQMNSLKPEDTAVYYCAARSFSGYGYLVRPKWYYYWGQGTQVTVSS”, the “polyreactivity (PSR sort gate)” value was “high polyreactivity”. The same measure for “QVQLVESGGGLVQAGGSLRLSCAASGRIFNVYAMGWYRQAPGKERELVASINSAGSTYYADSVKGRFTISRDNAKNTVYLQMNSLKPEDTAVYYCAADSYSVYYYTYDSWGQGTQVTVSS”: “low polyreactivity”; for “QVQLVESGGGLVQAGGSLRLSCAASGRIFNYAMGWYRQAPGKERELVAAISRGGGRTYYADSVKGRFTISRDNAKNTVYLQMNSLKPEDTAVYYCAADLSPEYDYWGQGTQVTVSS”: “high polyreactivity”.

Regarding “QVQLVESGGGLVQAGGSLRLSCAASGRIFNYNAMGWYRQAPGKERELVAAISSGGDTYYADSVKGRFTISRDNAKNTVYLQINSLKPEDTAVYYCGSTFVVKGTRFGYWGQGTQVTVSS”, the “polyreactivity (PSR sort gate)” value is listed as “high polyreactivity”. Then “QVQLVESGGGLVQAGGSLRLSCAASGRIFNYYAMRWYRQAPGKETELVAAITSSGGSTYYADSVKGRFTISRDNAKNTVYLQMNSLKPEDTAVYYCAAVSTATIRGGYWGQGTQVTVSS”, with “high polyreactivity”; and “QVQLVESGGGLVQAGGSLRLSCAASGRIFNYYDMGWYRQAPGKEREFVAAISWRGTSTRYADSVKGRFTISRDNAKNTVYLQMNSLKPEDTAVYYCAADDYARRFSFKYDYWGQGTQVTVSS”, with “high polyreactivity”; and “QVQLVESGGGLVQAGGSLRLSCAASGRIFPAYAMGWYRQAPGKERELVASIRRGGITYADSVKGRFTISRDNAKNTVYLQMNSLKPEDTAVYYCARPQWRDWYGYWGQGTQVTVSS”, with “low polyreactivity”. “QVQLVESGGGLVQAGGSLRLSCAASGRIFPAYVMGWYRQAPGKERELVATIDNGGCTYYADSVKGRFTISRDNAKNTVYLQMNSLKPEDTAVYYCARDRHVRWGLKMDYWGQGTQVTVSS”: the “polyreactivity (PSR sort gate)” value was “low polyreactivity”. Take “QVQLVESGGGLVQAGGSLRLSCAASGRIFPAYVMGWYRQPPGKERELVATIDNGGGTYYADSVKGRFTISRDNAKNTVYLQMNSLKPEDTAVYYCARDPHVRWGLKMDYWGQGTQVTVSS”: the “polyreactivity (PSR sort gate)” value is recorded as “low polyreactivity”.

For the sequence “QVQLVESGGGLVQAGGSLRLSCAASGRIFPEYAMGWYRQAPGKERELVAAITSGGNYADSVKGRFTISRDNAKNTVYLQMNSLKPEDTAVYYCAAVYLWYGSWPLHFAAYDYWGQGTQVTVSS”, the “polyreactivity (PSR sort gate)” value is given as “low polyreactivity”.

For the sequence “QVQLVESGGGLVQAGGSLRLSCAASGRIFPFNAMGWYRQAPGKERELVAAISSSGGSTYYADSVKGRFTISRDNAKNTVYLQMNSLKPEDTAVYSCAATRNSDGMGYWGQGTEVTVSS”, the “polyreactivity (PSR sort gate)” value is on record as “low polyreactivity”. In the case of “QVQLVESGGGLVQAGGSLRLSCAASGRIFPFYAMGWNRQAPGKERELVAAITSSGGRTYYADSVKGRFTISRDNAKNTVYLQMNSLIPEDTAVYYCAADDTDYPEYDYWGQGTQVTVSS”, the “polyreactivity (PSR sort gate)” value is recorded as “high polyreactivity”. The same measure for “QVQLVESGGGLVQAGGSLRLSCAASGRIFPFYVMGWYRQAHGKERELVATINWSGGSTYYADSVKGRFTISRDNAKNTVYLQMNRLKPEDTAVYYCNGAPSDDYDYWGQGTQVTVSS”: “low polyreactivity”; for “QVQLVESGGGLVQAGGSLRLSCAASGRIFPFYVMGWYRQAPGKERELVATINWSGGSTYYADSVKGRFTISRDNAKNTVYLQMNSLKPEDSAVYYCNAAPSEDYDYWGQGTQVTVSS”: “low polyreactivity”.

Turning to “QVQLVESGGGLVQAGGSLRLSCAASGRIFPFYVMGWYRQAPGKERELVATINWSGGSTYYADSVKGRFTISRDNAKNTVYLQMNSLKPEDTAVYYCNAAPSDDYDYWGQGTQVTVSS”, the “polyreactivity (PSR sort gate)” value was “low polyreactivity”.

“QVQLVESGGGLVQAGGSLRLSCAASGRIFPFYVMGWYRQAPGKERELVATINWSGGSTYYADSVKGRFTISRDNAKNTVYLQMNSLKPEETAVYYCNAAPSDDYDYWGQGTQVTVSS”: the “polyreactivity (PSR sort gate)” value is “low polyreactivity”. Then “QVQLVESGGGLVQAGGSLRLSCAASGRIFPGYAMGWYRQAPGKERELVAGISNDASTNYADSVKGRFTISRDNAKNTVYLQMNSLKPEDTAVFYCAAEISYLSVPRYDYWGQGTQVTVSS”, with “low polyreactivity”; and “QVQLVESGGGLVQAGGSLRLSCAASGRIFPGYGMGWYRQAPGKERELVASISVGGGSTYYADSVKGRFTISRDNAKNTVYLQMNSLKPEDTAVYYCAADPSPYGDEYDYWGQGTQVTVSS”, with “low polyreactivity”; and “QVQLVESGGGLVQAGGSLRLSCAASGRIFPHNAMGWYRQAPGTERELVAAISSNVGSTYYADSVKGRFTISRDNAKNTVYFQMNSLKPEDTAVYYCAKYRYFAGDGDYWGQGTQVTVSS”, with “low polyreactivity”. As to “QVQLVESGGGLVQAGGSLRLSCAASGRIFPHYARGWYRQAPGKERELFAAINVDGGRTYYADSVKGRFTISRDNAKNTVYLQLTSLKPEDTAVYYCAAKPVLYHEQDYGYAVEFNYWGQGTQVTVSS”, the “polyreactivity (PSR sort gate)” value is listed as “low polyreactivity”. The same measure for “QVQLVESGGGLVQAGGSLRLSCAASGRIFPINVMGWYRQAPGKERELVAAISGRGGSTYYADSVKGRFTISRDNAKNTVYLQMNSLKPEDTAVYYCNAVRVSIPYIYTMDYWGQGTQVTVSS”: “high polyreactivity”.

With “QVQLVESGGGLVQAGGSLRLSCAASGRIFPIYAMGWYRQAPGKERELVATIRYSSGTTYYADSVKGRFTISRDNAKNTVYLQMNSLKPEDTAVYYCAADSQWAYISEYDYWGQGTQVTVSS”, the “polyreactivity (PSR sort gate)” value was “low polyreactivity”. Then “QVQLVESGGGLVQAGGSLRLSCAASGRIFPKYAMGWYRQAPGKERELVAAISRRGSSTYYADSVKGRFTISRDNAKNTVYLQMTSLKPEDTAVYYCATDARDGHDYWGQGTQVTVSS”, with “high polyreactivity”; and “QVQLVESGGGLVQAGGSLRLSCAASGRIFPLYAMGWYRQAPGKERELDAAISKRDGSTSYADSVKGRFTISRDNAKNTVYLQMNSLKPVDTAVYYCNARNHVQVLFRRDYWGQGTQVTVSS”, with “low polyreactivity”; and “QVQLVESGGGLVQAGGSLRLSCAASGRIFPLYTMGWYRQAPGKERELVAAISVSGGRTSYADSVKGRFTISRDNAKNTVYLQMNSLKPEDTAVYSCAARYYVTSYFSSMYYWGQGTQVTVSS”, with “high polyreactivity”. Then “QVQLVESGGGLVQAGGSLRLSCAASGRIFPPNAMGWYRQAPGKERELVAGITSSGDTTYYADSVKGRFTISRDNAKNTVYLQMTSLKPEDTAVYYCAKDEVYADDRSALFDYWGQGTQVTVSS”, with “low polyreactivity”.

On to “QVQLVESGGGLVQAGGSLRLSCAASGRIFPRNTMGWYRQATGKERELVAAISVSGGSTYYADSVKGRVTISRDNAKNTVYLQMNRLKPEDTAVFFCAAAKCYRSGSWYEYWGQGTQVTVSS”, for which the “polyreactivity (PSR sort gate)” value is given as “high polyreactivity”.

Regarding “QVQLVESGGGLVQAGGSLRLSCAASGRIFPRYALGGYRQAPGKERELVAGISRSGGSTYYADSVKGRFTISRDNAKNTVYLQMNSLKPEDTAVYYCNTGGHYGARKYDYWGQGTQVTVSS”, the “polyreactivity (PSR sort gate)” value is recorded as “low polyreactivity”. The same measure for “QVQLVESGGGLVQAGGSLRLSCAASGRIFPSNAMGWYRQAPGKERELVAAISFSGGSTYYADSVKGRFTISRDNAKNTVYLQMNSLKPEDTAVYYCAKSGVVDWGQGTQVTVSS”: “low polyreactivity”; for “QVQLVESGGGLVQAGGSLRLSCAASGRIFPSYAMGWYRQAPGKERELVAAISDSDGSTYYADSVKGRFTISRDNAKNTVYLQMNSLKPEDTAVYYCAAEGSYPAYDYWGQGTQVTVSS”: “low polyreactivity”; for “QVQLVESGGGLVQAGGSLRLSCAASGRIFPSYAMGWYRQAPGKERELVAGIRSGGGSTYYADSVKGRFTISRDNAKNTVYLQMNSLKPEDTAVYYCAADPGLYGDYPLAEDYWGQGTQVTVSS”: “low polyreactivity”.

For the sequence “QVQLVESGGGLVQAGGSLRLSCAASGRIFPTYAMGWSRQAPGKERELVAAISRRTTRTYYADSVKGRFTISRDNAKNTVYLQMNSLKPEDTAVYYCAARLYSSVVRYRYGYWGQGTQVTVSS”, the “polyreactivity (PSR sort gate)” value is recorded as “high polyreactivity”. “QVQLVESGGGLVQAGGSLRLSCAASGRIFPTYTMGWYRQAPGKERELLAAISGRGGNTYYADSVKGRFTISRDTAKNTVYLQMNSLKPEDTAVYYCAARYPVRNGYWGLGTQVTVSS”: the “polyreactivity (PSR sort gate)” value was “high polyreactivity”. Then “QVQLVESGGGLVQAGGSLRLSCAASGRIFPTYTMGWYRQAPGKERELVAAITSGGTTYYADSVKGLFTISRDNAKNTVYLQMNSLKPEDTAVYSCAALRPRRGYYYWGQGTQVTVSS”, with “high polyreactivity”; and “QVQLVESGGGLVQAGGSLRLSCAASGRIFPVYAMGWYRQAPGKERELVASISSSGARTYYADSVKGRFTISRDNAKNTVYLQMNSLKPEDTAVYYCNAVRYFSSHSFISDYWGQGTQVTVSS”, with “low polyreactivity”.
